We go through six molecules from patent publication US20230242624A1 (NEURIMMUNE, published 2023).

As usually defined, the IC50 is the concentration that gives 50% inhibition. Low readings indicate greater potency, high ones weaker potency. Broadly, the EC50 is the concentration that produces a half-maximal response. Low values mean an effect from little substance, high ones a need for much substance. In general, EC50 (read off the curve) refers to the concentration at which the effect is half-maximal. Read a high EC50 (read off the curve) as a need for much substance.

Several values for one entry are separate records, joined by “and”; a condition that tells them apart may be missing. Equal values may be shown once.

The target of test [1] is T1, SARS-CoV-2-S1 (RBD)-His protein (Trenzyme) (SARS-CoV-2, UniProt P0DTC2 319-541). The test is described as follows: competition ELISA, RBD binding to coated ACE2.
Test [2] deals with T1, SARS-CoV-2-S1 (RBD)-His protein ….
The target is the same in test [3]. The test can be described thus: direct ELISA on coated RBD-His.
For test [4], the target named is 2019-nCov Spike protein (S1 mFC tag) (SARS-CoV-2, UniProt P0DTC2 16-685).
Test [5] deals with T1, SARS-CoV-2-S1 (RBD)-His protein …. The test can be described thus: direct ELISA on coated RBD-His (FIG. 1D). (An ELISA detects its analyte on a solid surface through an enzyme-linked reagent.)

B1: NI-607.531_C8 IgG4 S228P (antibody, V domains shown)
VH: EVQLVESGGGVVQPGRSLRLSCTASGFTFSFYSVHWVRQAPGKGLEWVAVISYDGSTKYYADSVKGRFTISRDNSKNTLYLQMDSLRTEDTAVYYCASPPISPIPAAGTPLAYWGQGTLVTVSS
VL: not shown
Turning to B1, the IC50 in test [1] was about 0.191 µg/mL. The “IC50 (read off the curve)” value in test [2] is about 0.03 µg/mL. This molecule gave a concentration for a half-maximal effect (EC50) in test [3] of about 8.5 pM.

B2: NI-607.532_F9 IgG4 S228P (antibody, V domains shown)
VH: EVQLVESGGNLIQPGGSLRLSCAASGFTVSSNYMSWVRQAPGKGLEWVSVIYSGGSTYYADSVKGRFTISRDNSRNTLYLQMNSLRAEDTAVYFCARDRVVRGVRGNGMDVWGQGTTVTVSS
VL: AIRMTQSPSSLSASVGDRVTITCQASQDINIYLNWYQQRPGKAPKLLIYDASNLETGVPSRFSGSGSGTDFTFTISSLQPEDIATYYCHQYDNLPRTFGQGTKVDIK
Take B2: the IC50 in test [1] was ~1.09 µg/mL and ~7.3 nM.

B3: NI-607.532_C11 IgG4 S228P (antibody, V domains shown)
VH: QVQLVESGGGLIQPGGSLRLSCAASGFTVSSNYMSWVRQAPGKGLEWVSVIYSGGSTYYADSVKGRFTISRDNSKNTLFLQMNSLRAEDTAVYYCARDLQYYGMDVWGQGTTVTVSS
VL: DIQMTQSPSFLSASVGDRVTITCRASQGISSYLAWYQQKPGKAPKLLIYAASTLQSGVPSRFSGSGSGTEFTLTISSLQPEDFATYYCQQLDSYPPRDTFGQGTKVEIK
Take B3: the half-inhibitory concentration (IC50) in test [1] was ~2.32 µg/mL and ~15.4 nM.

B4: NI-607.649_B11 (antibody, V domains shown)
VH: QVQLVQSGAEVKKPGSSVKVSCKASGGTFSNYAISWVRQAPGQGLEWMGGIIPIFGTANYAQKFQGRVTITADESTSTAYMELSSLRSEDTAVYYCAGDRWYYDSSGYPTPDEYFQHWGQGTQVTVSS
VL: QSVLTQPPSVSGAPGQRVTISCTGSSSNIGAGYDVHWYQQLPGTAPKLLIYGNSNRPSGVPDRFSGSKSGTSASLAITGLQAEDEADYYCQSYDSSLSGVVFGGGTKLTVL
On to B4, for which the “EC50 (read off the curve)” value in test [4] was about 500 pM.

B5: NI-607.649_B11 IgG4 S228P (antibody, V domains shown)
VH: QVQLVQSGAEVKKPGSSVKVSCKASGGTFSNYAISWVRQAPGQGLEWMGGIIPIFGTANYAQKFQGRVTITADESTSTAYMELSSLRSEDTAVYYCAGDRWYYDSSGYPTPDEYFQHWGQGTQVTVSS
VL: QSVLTQPPSVSGAPGQRVTISCTGSSSNIGAGYDVHWYQQLPGTAPKLLIYGNSNRPSGVPDRFSGSKSGTSASLAITGLQAEDEADYYCQSYDSSLSGVVFGGGTKLTVL
As to B5, the IC50 in test [1] was about 0.047 µg/mL. For the same molecule, in test [2], the “IC50 (read off the curve)” value was about 0.05 µg/mL. Also, the EC50 in test [5] is about 8.5 pM.

B6: NI-607.427_C5 IgG4 S228P (antibody, V domains shown)
VH: QVQLVQSGAEVKKPGASVKVSCKASGYTFTSYGISWVRQAPGQGLEWMGWISAYNGNTNYAQKLQGRVTMTTDTSTSTAYMELRSLRSDDTAVYYCARDNRAGWDQLDYWGQGTLVTVSS
VL: not shown
Turning to B6, the IC50 in test [1] was ~2.79 µg/mL and ~18.6 nM.
